“And” between values parts separate entries of the source, which are not always exact repeats. Equal values may be shown once.
T1: biotinylated MCSP antigen (amino acids 1553 to 2184 of matured melanoma-associated chondroitin sulfate … (Homo sapiens (Human), UniProt Q6UVK1 1582-2213, limits assumed, biotin on the C-terminal avi-tag))
T1 construct: The entry may include the leader; also called recombinant MCSP
T1 sequence: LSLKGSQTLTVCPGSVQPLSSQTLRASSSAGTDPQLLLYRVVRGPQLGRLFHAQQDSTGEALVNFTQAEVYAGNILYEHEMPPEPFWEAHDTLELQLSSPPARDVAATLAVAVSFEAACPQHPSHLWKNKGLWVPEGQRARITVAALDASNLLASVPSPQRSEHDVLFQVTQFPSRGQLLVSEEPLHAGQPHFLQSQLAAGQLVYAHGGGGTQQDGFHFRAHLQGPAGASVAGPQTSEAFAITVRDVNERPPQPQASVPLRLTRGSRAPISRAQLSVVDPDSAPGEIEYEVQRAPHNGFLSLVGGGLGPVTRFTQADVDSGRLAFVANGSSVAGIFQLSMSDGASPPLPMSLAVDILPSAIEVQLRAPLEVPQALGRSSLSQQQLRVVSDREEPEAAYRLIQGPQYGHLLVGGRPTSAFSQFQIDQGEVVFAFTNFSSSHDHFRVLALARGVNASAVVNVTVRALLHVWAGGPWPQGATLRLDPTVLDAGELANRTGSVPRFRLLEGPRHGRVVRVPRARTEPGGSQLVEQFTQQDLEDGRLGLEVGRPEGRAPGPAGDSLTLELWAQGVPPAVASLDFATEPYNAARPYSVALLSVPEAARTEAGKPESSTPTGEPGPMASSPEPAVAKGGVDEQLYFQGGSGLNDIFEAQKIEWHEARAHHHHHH

T2: murine LAG3-Fc antigen (R&D Systems, 3328-L3-050) (murine, UniProt Q61790 24-442)
T2 construct: Bought reagent
T2 sequence (looked up): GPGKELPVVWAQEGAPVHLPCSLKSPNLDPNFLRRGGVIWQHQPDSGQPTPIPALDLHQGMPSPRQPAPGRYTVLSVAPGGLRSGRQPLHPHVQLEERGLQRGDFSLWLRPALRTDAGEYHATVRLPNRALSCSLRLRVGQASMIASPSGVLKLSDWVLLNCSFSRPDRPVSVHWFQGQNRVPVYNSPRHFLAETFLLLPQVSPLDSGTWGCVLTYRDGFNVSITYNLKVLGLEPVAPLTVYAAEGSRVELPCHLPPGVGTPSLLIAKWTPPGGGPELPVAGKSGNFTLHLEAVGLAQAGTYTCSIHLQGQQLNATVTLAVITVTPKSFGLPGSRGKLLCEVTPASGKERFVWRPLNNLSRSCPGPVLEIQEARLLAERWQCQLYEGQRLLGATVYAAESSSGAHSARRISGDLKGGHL

T3: human LAG3 on recombinant CHO cells (human, UniProt P18627 23-525)
T3 construct: whole, on cells; also called Lag3 cells; recombinant CHO cells expressing Lag3
T3 sequence (looked up): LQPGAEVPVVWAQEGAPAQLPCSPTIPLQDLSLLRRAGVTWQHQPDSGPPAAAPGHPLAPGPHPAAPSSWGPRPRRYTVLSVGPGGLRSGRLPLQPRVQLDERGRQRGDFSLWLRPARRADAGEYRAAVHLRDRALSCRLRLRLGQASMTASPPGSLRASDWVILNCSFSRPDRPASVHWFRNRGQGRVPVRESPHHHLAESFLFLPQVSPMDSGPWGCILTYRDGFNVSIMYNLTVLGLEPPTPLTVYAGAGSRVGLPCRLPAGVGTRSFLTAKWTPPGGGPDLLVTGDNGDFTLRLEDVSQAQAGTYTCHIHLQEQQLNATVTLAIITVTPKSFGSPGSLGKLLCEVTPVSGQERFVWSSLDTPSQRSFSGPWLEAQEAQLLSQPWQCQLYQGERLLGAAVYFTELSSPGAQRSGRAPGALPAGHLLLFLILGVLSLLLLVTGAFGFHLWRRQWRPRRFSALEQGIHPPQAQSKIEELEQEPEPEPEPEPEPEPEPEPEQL

T4: recombinant human LAG3 Fc Chimera Protein (R&D Systems, 2319-L3) (human, UniProt P18627 23-450)
T4 construct: Bought reagent
T4 sequence (looked up): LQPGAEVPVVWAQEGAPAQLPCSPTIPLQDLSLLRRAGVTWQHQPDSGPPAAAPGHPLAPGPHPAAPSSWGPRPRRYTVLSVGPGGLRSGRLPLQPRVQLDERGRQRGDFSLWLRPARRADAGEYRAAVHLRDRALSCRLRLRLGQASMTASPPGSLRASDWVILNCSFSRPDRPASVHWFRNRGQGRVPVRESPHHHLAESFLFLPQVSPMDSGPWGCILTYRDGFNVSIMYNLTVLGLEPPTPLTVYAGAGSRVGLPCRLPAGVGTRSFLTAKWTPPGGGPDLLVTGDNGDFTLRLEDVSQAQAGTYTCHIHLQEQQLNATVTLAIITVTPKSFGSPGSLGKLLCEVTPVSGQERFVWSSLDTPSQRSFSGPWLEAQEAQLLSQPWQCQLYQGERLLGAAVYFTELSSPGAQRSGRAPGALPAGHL


Tests used:
[1] = biological target: T1, biotinylated MCSP antigen (amino acids …); experiment: ELISA, biotinylated MCSP antigen on neutravidin plates, bacterial supernatants, anti-Flag/HRP
[2] = biological target: T2, murine LAG3-Fc antigen (R&D Systems, …); experiment: ELISA using murine LAG3-Fc antigen
[3] = biological target: T3, human LAG3 on recombinant CHO cells; experiment: cell ELISA on CHO cells expressing human LAG3;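 note: bivalent Fc-format binders titrated in threefold steps from 6 µg/mL, incubated with the cells 2 h at 4 °C, bound antibody detected by HRP-coupled anti-human IgG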
[4] = biological target: T4, recombinant human LAG3 Fc Chimera …; experiment: ELISA, plate coated with human LAG3 Fc chimera
[5] = biological target: T4, recombinant human LAG3 Fc Chimera …; experiment: SPR (Biacore), aVH-Fc captured by anti-human Fc, human LAG-3 Fc chimera as analyte, 25 C
[6] = biological target: T5, soluble human Lag3-IgG1-Fc with biotinylated C-terminal Avi-tag (human, biotin on the C-terminal Avi-tag); experiment: A375 MHCII competition ELISA, biotinylated Lag3 250 ng/ml; competitor MHCII on A375 cells
T5 construct: also called LAG3-Fc-avi; biotinylated LAG3-Fc antigen

[7] = biological target: T4, recombinant human LAG3 Fc Chimera …; experiment: SPR (Biacore), aVH-Fc captured by anti-human Fc, human LAG-3 Fc chimera as analyte, 25 C; * poor fit
[8] = biological target: T5, soluble human Lag3-IgG1-Fc with …; experiment: A375 MHCII competition ELISA at 3 µg/ml, biotinylated Lag3 250 ng/ml; competitor MHCII on A375 cells
[9] = biological target: T4, recombinant human LAG3 Fc Chimera …; experiment: SPR (Biacore), antibody captured by anti-human Fc, human LAG-3 Fc chimera as analyte, 25 C

binding result [1]	binding result [2]	EC50 [3]	OD max [3] [OD]	OD max [4] [OD]	t1/2 [5] [min]	IC50 [6]	koff [7] [s⁻¹]	% Inhibition [8] [%]	EC50 [4]	koff [9] [s⁻¹]	t1/2 [9] [min]	Binder
–	no binding	0.0169 µg/mL and 0.2 nM	1.2	1.3	2.4	0.0903 µg/mL and 1.2 nM	0.0048	92.4	–	–	–	bivalent P11A2 aVH-Fc (Fc fusion) EVQLVESGGGLVQPGGSLRLSCAASSFNIKDTYIGWVRRAPGKGTELVAEIACHEGTTRYADSVKGRFTISCDTSKNTAYLQMNSLRAEDTAVYYCANTEYDDIFDYWGQGTTVTVSSGGGGSGGGGSDKTHTCPPCPAPEAAGGPSVFLFPPKPKDTLMISRTPEVTCVVVDVSHEDPEVKFNWYVDGVEVHNAKTKPREEQYNSTYRVVSVLTVLHQDWLNGKEYKCKVSNKALGAPIEKTISKAKGQPREPQVYTLPPSRDELTKNQVSLTCLVKGFYPSDIAVEWESNGQPENNYKTTPPVLDSDGSFFLYSKLTVDKSRWQQGNVFSCSVMHEALHNHYTQKSLSLSPGK
–	–	–	2.06	3.39	–	0.127 µg/mL and 0.8 nM	–	90.4	0.0031 µg/mL and 0.02 nM	0.00039	30	control antibody MDX25F7 (antibody, V domains shown) VH: QVQLQQWGAGLLKPSETLSLTCAVYGGSFSDYYWNWIRQPPGKGLEWIGEINHNGNTNSNPSLKSRVTLSLDTSKNQFSLKLRSVTAADTAVYYCAFGYSDYEYNWFDPWGQGTLVTVSS VL: EIVLTQSPATLSLSPGERATLSCRASQSISSYLAWYQQKPGQAPRLLIYDASNRATGIPARFSGSGSGTDFTLTISSLEPEDFAVYYCQQRSNWPLTFGQGTNLEIK

Second part, the binder before the results:

Binder	binding result [1]	binding result [2]	EC50 [3]	OD max [3] [OD]	OD max [4] [OD]	t1/2 [5] [min]	IC50 [6]	koff [7] [s⁻¹]	% Inhibition [8] [%]	EC50 [4]	koff [9] [s⁻¹]	t1/2 [9] [min]
SEQ ID NO 61 (VHH, is one of clones 3, 25, 44, 57.1; also called MCSP-specific aVH) VHH: EVQLVESGGGLVQPGGSLRLSCAASSFNIKDTYIGWVRRAPGKGTELVAGIYCEAGITRYADSVKGRFTISCDTSKNTAYLQMNSLRAEDTAVYYCAGKGIGNYFDYWGQGTTVTVSS	binds	–	–	–	–	–	–	–	–	–	–	–
SEQ ID NO 59 (VHH, is one of clones 3, 25, 44, 57.1; also called MCSP-specific aVH) VHH: EVQLVESGGGLVQPGGSLRLSCAASSFNIKDTYIGWVRRAPGKGTELVADIYCSEGSTRYADSVKGRFTISCDTSKNTAYLQMNSLRAEDTAVYYCAAVSDYVVFYYWGQGTTVTVSS	binds	–	–	–	–	–	–	–	–	–	–	–
